The assay deals with Pak2 kinase (UniProt Q13177). As to the kind of experiment: cell-based or functional assay.
UniProt Q13177, sequence (Q13177 2-524 limits assumed): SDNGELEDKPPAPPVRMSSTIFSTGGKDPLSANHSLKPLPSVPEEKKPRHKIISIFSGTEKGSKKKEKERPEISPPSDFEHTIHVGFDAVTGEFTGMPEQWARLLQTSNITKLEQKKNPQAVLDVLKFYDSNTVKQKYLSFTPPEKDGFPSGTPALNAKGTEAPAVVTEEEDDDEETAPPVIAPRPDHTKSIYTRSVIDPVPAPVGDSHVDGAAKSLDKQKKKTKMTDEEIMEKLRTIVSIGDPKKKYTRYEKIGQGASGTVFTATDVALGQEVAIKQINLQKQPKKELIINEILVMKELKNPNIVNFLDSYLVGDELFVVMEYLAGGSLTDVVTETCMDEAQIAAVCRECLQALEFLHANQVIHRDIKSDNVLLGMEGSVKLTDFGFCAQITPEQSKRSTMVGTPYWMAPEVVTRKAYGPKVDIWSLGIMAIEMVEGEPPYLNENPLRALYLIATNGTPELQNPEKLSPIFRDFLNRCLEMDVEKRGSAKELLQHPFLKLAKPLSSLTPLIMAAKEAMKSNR

Substance “HIV-1 Nef protein, wild type (Nef from HIV-1 Clade B)” yielded a phosphorylation of the Pak2 kinase at S55, quantitative phosphoproteomics of NALM6-stimulated CAR T cells, Nef-WT compared to NefAxxA of 2.15 log2Fc and a phosphorylation of the Pak2 kinase at S152, quantitative phosphoproteomics of NALM6-stimulated CAR T cells, Nef-WT compared to NefAxxA of 1.17 log2Fc.

These data come from patent publication EP4683932A2.
